From article doi:10.1101/2021.11.02.466367
“And” between values parts separate entries of the source, which are not always exact repeats. Identical values can stand only once.

Tests used:
[1] = target: Csx28 (Prevotella buccae Type VI-B2 CRISPR-Cas accessory protein), recombinant, DDM-solubilised (Prevotella buccae ATCC 33574); assay: cryo-EM structure
[2] = target: Csx28 (Prevotella buccae Type VI-B2 CRISPR-Cas accessory protein), recombinant, DDM-solubilised (Prevotella buccae ATCC 33574); assay: SEC-MALS

With “Csx28 (Prevotella buccae Type VI-B2 CRISPR-Cas accessory protein), recombinant, DDM-solubilised (natural protein)” the stoichiometry N [1] was 8 and 16 and the stoichiometry N [2] was 8 and 16.
